This note sets out measurements from patent publication CN116355089A.

The target of one experiment is 人IV型胶原蛋白α3链多肽 (human). Description: indirect ELISA, purified antibody on plates coated with 0.5 μg/ml peptide. (In general: An ELISA detects its analyte on a solid surface through an enzyme-linked reagent.)
A further experiment has as its target 生物素标记的抗原多肽. Description: BLI (Fortebio Octet), biotinylated peptide on SA biosensor, antibody at 1.56-100 nM. (Biolayer interferometry detects binding as a change in optical thickness at a sensor tip.)

B1: 4E5E2-1 (antibody, IgG1, V domains shown)
VH: EVQLQQSGAELVRSGASVKLSCTASGFNIKDSNIHWLIQRPEQDLEWIGWIDPDNGDSEYAPKFQGEATMTADTSSNTAYLQLSSLTSEDTAVYFCNAVNWDYFDYWGQGTTLTVSS
VL: DVVVTQTPLSLPVSLGDQASISCRSSQSLVHNNGNTYLHWYLQRPGQSPKLLIYKVSNRFSGVPDRVSGSGSGTDFTLKISRVEAEDLGVYFCSQSTHIPITFGSGTKLEIK
The molecule B1 came in with an EC50 in the experiment with 人IV型胶原蛋白α3链多肽 (human) of 4.64 ng/mL. The Kd with 生物素标记的抗原多肽 amounted to 399 pM.

Usually EC50 stands for the concentration giving half of the maximal effect. As a reminder, the Kd is the concentration at which binding is half-saturated. A lower Kd goes with tighter binding.
